Here are results for 7 sequences from the supplement of paper PMC5998384.

The subject of series [1] is HeLa Kyoto. Nature of the series: melting temperature (median over replicates), in situ; higher = more thermally stable.
The subject of series [2] is HeLa Kyoto. Nature of the series: thermal stability score vs G1/S (z-score of summed log2 fold changes over temperatures); higher = more thermally stable than in G1/S.
[3] abbreviates: cell cycle stage: early G1 (4.5 h after nocodazole release).
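Throughout, for melting temperature (median over replicates), in situ: HeLa Kyoto cells synchronized by double thymidine or nocodazole block, proteins quantified by TMT10plex mass spectrometry, three independent biological replicates.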
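Throughout, for thermal stability score vs G1/S (z-score of summed log2 fold changes over temperatures): synchronized HeLa Kyoto cells, proteins quantified by TMT10plex mass spectrometry, three biological replicates, mitosis taken 0.5 h after nocodazole release, G1/S directly after double thymidine block.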

In the case of “MAAPAGGGGSAVSVLAPNGRRHTVKVTPSTVLLQVLEDTCRRQDFNPCEYDLKFQRSVLDLSLQWRFANLPNNAKLEMVPASRSREGPENMVRIALQLDDGSRLQDSFCSGQTLWELLSHFPQIRECLQHPGGATPVCVYTRDEVTGEAALRGTTLQSLGLTGGSATIRFVMKCYDPVGKTPGSLGSSASAGQAAASAPLPLESGELSRGDLSRPEDADTSGPCCEHTQEKQSTRAPAAAPFVPFSGGGQRLGGPPGPTRPLTSSSAKLPKSLSSPGGPSKPKKSKSGQDPQQEQEQERERDPQQEQERERPVDREPVDREPVVCHPDLEERLQAWPAELPDEFFELTVDDVRRRLAQLKSERKRLEEAPLVTKAFREAQIKEKLERYPKVALRVLFPDRYVLQGFFRPSETVGDLRDFVRSHLGNPELSFYLFITPPKTVLDDHTQTLFQANLFPAALVHLGAEEPAGVYLEPGLLEHAISPSAADVLVARYMSRAAGSPSPLPAPDPAPKSEPAAEEGALVPPEPIPGTAQPVKRSLGKVPKWLKLPASKR [ASPSCR1]”, the melting temperature in series [1] (cell cycle stage: G1/S) was 52.2 °C. The thermal stability score in series [2] (setting [3]) was -0.292; in series [2] (cell cycle stage: mitosis), -0.934.

As for “MAAVVAKREGPPFISEAAVRGNAAVLDYCRTSVSALSGATAGILGLTGLYGFIFYLLASVLLSLLLILKAGRRWNKYFKSRRPLFTGGLIGGLFTYVLFWTFLYGMVHVY [EMC6]”, the values for the melting temperature in series [1] (cell cycle stage: G1/S) and in series [1] (cell cycle stage: mitosis) were 54.6 °C and 54.1 °C, respectively. Moreover, the thermal stability score in series [2] (setting [3]) was 1.03; in series [2] (cell cycle stage: mitosis), -0.846.

On to “MALRELKVCLLGDTGVGKSSIVWRFVEDSFDPNINPTIGASFMTKTVQYQNELHKFLIWDTAGQERFRALAPMYYRGSAAAIIVYDITKEETFSTLKNWVKELRQHGPPNIVVAIAGNKCDLIDVREVMERDAKDYADSIHAIFVETSAKNAININELFIEISRRIPSTDANLPSGGKGFKLRRQPSEPKRSCC [RAB22A]”, for which the melting temperature in series [1] (cell cycle stage: G1/S) stood at 54.8 °C; in series [1] (cell cycle stage: mitosis) it was 53.7 °C. In addition, the figures for the thermal stability score in series [2] (setting [3]) and in series [2] (cell cycle stage: mitosis) were 1.25 and 0.617, respectively.

Consider “MARAAPLLAALTALLAAAAAGGDAPPGKIAVVGAGIGGSAVAHFLQQHFGPRVQIDVYEKGTVGGRLATISVNKQHYESGAASFHSLSLHMQDFVKLLGLRHRREVVGRSAIFGGEHFMLEETDWYLLNLFRLWWHYGISFLRLQMWVEEVMEKFMRIYKYQAHGYAFSGVEELLYSLGESTFVNMTQHSVAESLLQVGVTQRFIDDVVSAVLRASYGQSAAMPAFAGAMSLAGAQGSLWSVEGGNKLVCSGLLKLTKANVIHATVTSVTLHSTEGKALYQVAYENEVGNSSDFYDIVVIATPLHLDNSSSNLTFAGFHPPIDDVQGSFQPTVVSLVHGYLNSSYFGFPDPKLFPFANILTTDFPSFFCTLDNICPVNISASFRRKQPQEAAVWRVQSPKPLFRTQLKTLFRSYYSVQTAEWQAHPLYGSRPTLPRFALHDQLFYLNALEWAASSVEVMAVAAKNVALLAYNRWYQDLDKIDQKDLMHKVKTEL [PCYOX1L]”, for which the values for the melting temperature in series [1] (cell cycle stage: G1/S) and in series [1] (cell cycle stage: mitosis) were 56.6 °C and 56.2 °C, respectively. For the same sequence, the values for the thermal stability score in series [2] (setting [3]) and in series [2] (cell cycle stage: mitosis) were 0.689 and 1.38, respectively.

With “MATRRLTDAFLLLRNNSIQNRQLLAEQVSSHITSSPLHSRSIAAELDELADDRMALVSGISLDPEAAIGVTKRPPPKWVDGVDEIQYDVGRIKQKMKELASLHDKHLNRPTLDDSSEEEHAIEITTQEITQLFHRCQRAVQALPSRARACSEQEGRLLGNVVASLAQALQELSTSFRHAQSGYLKRMKNREERSQHFFDTSVPLMDDGDDNTLYHRGFTEDQLVLVEQNTLMVEEREREIRQIVQSISDLNEIFRDLGAMIVEQGTVLDRIDYNVEQSCIKTEDGLKQLHKAEQYQKKNRKMLVILILFVIIIVLIVVLVGVKSR [STX16]”, the melting temperature in series [1] (cell cycle stage: G1/S) stood at 51 °C; in series [1] (cell cycle stage: mitosis), 49.8 °C. Further, the thermal stability score in series [2] (setting [3]) is -1.14; in series [2] (cell cycle stage: mitosis) it was -0.879.

For the sequence “MAYQLYRNTTLGNSLQESLDELIQSQQITPQLALQVLLQFDKAINAALAQRVRNRVNFRGSLNTYRFCDNVWTFVLNDVEFREVTELIKVDKVKIVACDGKNTGSNTTE [GTF2A2]”, the melting temperature in series [1] (cell cycle stage: G1/S) came out at 58.6 °C; in series [1] (cell cycle stage: mitosis), 53.4 °C. Further, the results for the thermal stability score in series [2] (setting [3]) and in series [2] (cell cycle stage: mitosis) were 0.419 and 0.557, respectively.

With “MDGPVAEHAKQEPFHVVTPLLESWALSQVAGMPVFLKCENVQPSGSFKIRGIGHFCQEMAKKGCRHLVCSSGGNAGIAAAYAARKLGIPATIVLPESTSLQVVQRLQGEGAEVQLTGKVWDEANLRAQELAKRDGWENVPPFDHPLIWKGHASLVQELKAVLRTPPGALVLAVGGGGLLAGVVAGLLEVGWQHVPIIAMETHGAHCFNAAITAGKLVTLPDITSVAKSLGAKTVAARALECMQVCKIHSEVVEDTEAVSAVQQLLDDERMLVEPACGAALAAIYSGLLRRLQAEGCLPPSLTSVVVIVCGGNNINSRELQALKTHLGQV [SDSL]”, the melting temperature was determined as 55.1 °C in series [1] (cell cycle stage: G1/S) and 57.9 °C in series [1] (cell cycle stage: mitosis). Besides, the thermal stability score in series [2] (setting [3]) was -3.07; in series [2] (cell cycle stage: mitosis), -2.65.
